Reference: US20240026407A1, “MODIFICATION OF SAPONINS” (GLAXOSMITHKLINE BIOLOGICALS SA, priority 2020, published 2024)

How the values were obtained:
Type in all cases: biochemical, Quillaja saponaria
[1] = Experiment 6-1: screening of rhamnosidases for derhamnosylation of saponins in treated bark extract (2%), QS-17 2296 to QS-18 2150 (PAR %); settings: TBE 2%, pH 7.5, 30 degC, 18 h; TIC peak area ratio percent of rhamnosylated starting saponin to derhamnosylated product, LCMS/MS; negative controls 4.876, 5.225
[2] = Experiment 6-1: screening of rhamnosidases for derhamnosylation of saponins in treated bark extract (2%), desglucosyl-QS-17 2134 to QS-21 1988 (PAR %); settings: TBE 2%, pH 7.5, 30 degC, 18 h; TIC peak area ratio percent, LCMS/MS; negative controls 2.719, 2.158
[3] = Experiment 6-1: specificity of rhamnosidases towards other rhamnose residues (C3 saccharide rhamnose, C28 saccharide rhamnose); settings: TBE 2%, pH 7.5, 30 degC, 18 h; LCMS/MS; negative controls 0.18, 0.17
[4] = Experiment 6-1: screening of rhamnosidases for derhamnosylation of saponins in treated bark extract (2%), QS-17 2310 to QS-18 2164 (PAR %); settings: TBE 2%, pH 7.5, 30 degC, 18 h; TIC peak area ratio percent, LCMS/MS; negative controls 3.061, 2.429

| Molecule | QS-17 (PAR %) [1] | Peak75 (PAR %) [2] | ratio PP/QS-21 [3] | Peak57 (PAR %) [4] |
| --- | --- | --- | --- | --- |
| 1010 (protein, listed as Paenibacillus mucilaginosus) MEENRLWNARWIWHQSYPWTSDPGTHEMVWFRREFDVTDPHLAQLVVDISADSRYRLFLNGDSVSVGPCKGDRSTHYYETVDLSERLIAGTNVLAAQVLHFAPSGPHLLGVSGPLSIHRAVSGAMFLEGVLIEGNGHSQTLHSDEKWLCKKMPGFKLVPSPIIFFLGGFEDTDGSGLDHGWELPGYDDEGWTNAVIVCETGDKFGQLTPWQLAPRPIPPMREEPASFRGITKADDRAAIPGYEAMLRGGDTRSVRVEAGQSIWLELDAGELVTGYVTLKLRGGRESRIKLLYAESYEEPASNLHHRVKGIRDDAENGILLGEADHYTVAGVGIGESVERYEPFDFRTFRYLRLEAAAKDEPLEIVLLSYRDTGYPLNAQAAFSCSDPDYAALWELSLKTLRRCMHETYEDCPYYEQLQYTMDTRLQMMFTYAVSADDRLARRALFDYHSSALPSGMLQSRYPSEYRQVIPSFSLYWIHMLYEHYWHFGDRELIRRYVPTMTGVLGWFRRMLTPEGLVAPTPRAYWPYFDWCIDWENGTPPAHAKGPLTLLSQMLAAALQTASQIYEAVGWSDAAREAKADANAVNEALLRLCWRPERGLFADGPEVEEFSQHAQVWGVVCGAVQGEDAVRLLERTIEPQAEHMAQLSVPASYELFRMLSRHGLYGKASNVIDRWKAFLHLHLTTLPEVTDDNHPRSDCHAWSALPLSEFTGEILGVRPGAPGYSEIIVSPQPLQLSWAKGSAATRHGSVEVEWTLDEEAVFRMSGNGPVGIPLLVVLPNGKQVEFRHGGKFEASAKLRA | 4.796% | 2.559% | 0.18 | 2.845% |
| 1069 (protein, listed as Deltaproteobacteria bacterium) MSLHDRSWVWNPDWNESRKETSAGGFVHFRREIDLEKRPSRPIFISITADTRYKLYINSKFVHHGPVKGDSQVWYYDELDIQPYMKAGKNTIAVRVLRLYHGTRFGTSFPRMPLGGLRIQHIRDSNDPPIIFSIETNGSWKTAVDRSSFLPIIEDDMFLHIFEAVDRRNDCKLQWTSAKPHKIFNAFGLVSPWKLSPRQIPFANFRPAIFSTIHNIRSTSNDAEVVDWQACLLAKSSNRTPVRLAAGTIHHVELEASHHLTAFMSFLFERPENPGAEIKITYSECYEDVPDNPQFRQKADRRDTSKKLLGPYDTFILGGRIYEQEDPSSAYHESGEDMVIFAPFHFRTFRFIAIDIAVNSDSDLIFHGVQITRTKYPLDVLAQFSPGGRDVTLPVQKMWETSILTLENCMHDCYEDCPFYEQLQYAMDTRSSALFTYYLSGDDRLARQAITQTRNSFQPSIGLTASRAPCEHLQIIPNFSLFWICMVADHYLHYGDMAFTSQFLPVCDAVLDSFRRRIDPDLGLVRCYDTDDFWDFVDWTEAWKPRGIPPAGKRTGYQTFSSSLYAYTLNLIAPAVEEYGRKGVAEEYRQSAAEVAASIWQHCFDGQYFTDGLAGSALNSEYSQHNQVWAILSGAVIGDEARQLLSKTLSRHDLTTPSIAMSFYTLQAVSLVGGDLYDLHFNDFWAPWIEQLSNNVTTWVEDNVSQRSECHAWGSAPIYEFMAEVVGLRPLEPGWRSISFKPRLALFETMDSKVPIPIRGSSGMAVAHVRWGRKGDDIAGVTIELKKGAENLRIPITLSHESGEDEVVISPFARDVRIQ | 4.786% | 2.213% | 0.17 | 2.596% |
| 1080 (protein, listed as Eisenbergiella massiliensis) MANWIWYPGDFEIYHGMCQNFDREERGFFWPAYWHIADCRHHVVFHASCRLEKETAFRVTAKGIGHVLVKWEEKAPSWFPEGQPFYQEKKYTIGEWISCPAKEIGIDVVIGNRTGLPCIYVEGEVIRSGKNWTVTDFAAPEVPVGWNDMYVRAQQDPQIFEYTQELCRPVSTERVNGGVLYDFGRELTADTLIKINGEERPDQVTLCYGESRTEALDTQLCYLKQVLEIPGKKDSVPAGCASGPEREADCGASPFGRWESGQRYHTKLRAFRYIFVPEGENASLVTVEALYKYVDFPKRSSFSCSDGLINRIWEVADTTFRLASGIFFLDGVKRDRWIWSGDAYQSYFINQYLFFDKDICKRTILALRGNDPVTEHINTIVDYSMYWIISLENYYNMSGDLDFIRMVYPRMESLLRYCMEQTDGQGFIYGREGDWIYIDWAELDKEGILCAEQQLLARSYEAVASVRRLLGLDAEEFDVRKEALLKNIRQFFWDEEKGAFIDSYQSGRRNVTRHANIFAVLFGYADEAETESILHKVLLNEEVAAITTPYFKFYELEALAKLGRFEVVMDTLKSYWGGMLERGADTFWEEYKPEQPEEEQYGMYGDKYGKSLCHAWGASPIYLLGRYCMGVRPTGTAYETFAVEPQLELFDSFSCSFPVNEGTVWMDWKDGVLDVYTDKDGGVLKAAGKEYTLERGKHVVVKGR | 4.792% | 2.434% | 0.17 | 2.882% |
| 996 (protein, listed as Opitutus terrae) MHRRFLAAILLGAPALLESAAAAPETPAAPPPAAAQPLAWPEVHRETKPWSRWWWFGNIADEKSVTAQLEACAAAGLGGLEITPIYGVRGYEDRFVPFLSPRWMELLRHTLVESRRLGLGIDLATGTGWPFGGPWLQPEDVAHTLAHRVYEIKPGERLGEPVRLTATGLVRVAGPRPVKLEELREPITANANLQELALDQVRFPKPMRLVSLMAFPLALAGVAPTPLDLTSRVRADGSLDWTAPADAGTWTLYALFAGPHGKMVERAAPGGEGFALDHFSSTALRAYLARFDAAFAEGHLLSDLPSAAGADSAPRLRAFFNDSYEVDDADGEANWTPRFLEEFQKRRGYDLRAHLPELLATTENDFSARVRSDYRETISDLLLDEFTNPWREWAHQHGALIRNQAHNSPANILDLYAASDIPEQEGNGFLAMKLASSAAHVSGKPLASAETATWLNEHFLTTLAELKQNTDEFLLAGINHVCYHGTALSPLDAAWPGFNFYASVELNPLNPFWRDFTALNAYVARAQSFLQSGTPDEDVLLYYNIHDRWAERGNGRMPHFGHGGRDPSGSLAATAAALHEAGVGFDYVSDRQLQKITPDRAIVVPQTTFMPEATLARLVELAAQGATILFVDHLPRSAPGLAGLNASGRFEQLLQKIQTQLAPSDVLSAAKLDGGQFLLGPGIRELLDRCPGIARESLRPFGLEFVRRRTDAGALYFLVNRSNQPIDRWIPLQSPAAAAALFDPMTGNAGLAAIHSSGPTGSASIPPAHSDGARASRAPTEIYLQLAPGESCVVQLHATPVAGPAWHYWQRAGEPHLLTGDWSVTFTAGGPALPAAAQLHALTSWTDFAGEAGRAFSGTAVYTRRFARPSGDAPAWELDLGTVGDSARVTLNGRELGVLIQPPWRVVIPANEWRDENALEIDVTNLAANRIADLDRRGASWKIFYNANFPARFRENVGPDRQFTAARWLPRNSGLLGPVKLTPLQKSDPTL | 4.778% | 2.221% | 0.16 | 3.190% |
| 1056 (protein, listed as Solitalea canadensis) MKPIITNLMLLLFAGAASAQSSKELYRSKEFSIYTDKVVQGKYIAKVLSPTEMTSDYQSPVNLYKSPKLTFKFSINGKDNEMISGQDHSINVMAKDGKFISPLITFGKHYVDKKNVPDNTYLEPNIDFTIRLDMRNVLNAFKTDGFYKGADGKKVYKEDFKGVYVAGSTLPLIWDFDNLVHHPDLQLKDDDGDGIYEVKVVLNEFKEQPSVSSNWKLKRNISAFPQYQASSPIENAMYNLSLDEMENAIEADSTLRTGKEWAGVWTRDVSYSIILSMAILQPKVAEYSLLRKVKNDRIIQDTGTGGAYPVSTDRMIWAVAAWEIYKTTGDKNWLSKAYSIIKNSIEDDWKNAYDPKTGLVKGESSFLDWREQEYPKWMQPADIYESECLGTNVVHFQANKVFAEMAILLGQKTVSDEHNAIAQTIKTGINNYLWIANKGYYGQYLYGRNYKILSPRSEALGEALAVIFGVADNERQKTIVRNTPVNSFGIPCFYPQLPNTPPYHNNAVWPFVQTYWALAAANAGNEQSVMESIAAIYRPAALFLTNKENFVADNGDFAGTQINSSNMLWSLSGNIALVYKVLFGMQFGADRLTFKPTVPQALAGTRMLTNFKYRNALLTISMQGFGTQIKSITMDGKPLVNAIVPASLTGKHTIKMVLTNMMESSSTTILPAYTSLTIPQVELKNDEIVWKKVPNAVSYVFIKNGDRIDNGIDTACIINNNSFAEYQVIAVDKNGVESFGSEPLQIIPEQTVKTIEIENLTSKADLPYKGYSGDGFVEISTQKNTILSFETTITEAGTYAINFKYANGNGPINTENKCAFRTLKLNNKQVGTVVLPQRGTNEWSEWGMSNSVIVELKAGTNKFDLTYETNNANMNGTVNQAMLDYVRIVKVE | 4.774% | 2.416% | 0.17 | 2.796% |
| 1035 (protein, listed as Caulobacter segnis) MVKAYRPSLVLVLALAFGPAASAEPIWITHPAAPSAPTVVRFERDLTLARKPGHFPVRVSADNRFILLVNGRRVGAGPATSDLGHWRYATLDLAPYLTRGSNHLEAVVWNYVKPEEPIPDGLSPAQKNAAAFRNQRNQTGPVAQISARLGFWFSAPGAPELDSGPTWRVQLDSARSAAPVMGQVAGFYAAGPSEIVDARVPLAAPVAATPALAPGEPSPWALSADPLPQMSYRAVDPGLVARTNLDEAKAFPRQPVTIPARKTVKILLARPAMVAAYPTLRVTGGKDASIKLTYAEALIDAKGRKGLRSEVGDRTIRGLSDRFTADGGARAFAPLWWRTWRYLEIEVQTADQPLRLQGLDVAETDYPFGQVGKFVSDDPELNRIWDIGWRTARIDAHETYMDTAYYEQLQYVGDTRLQALISYAVSGDPRLATQAMDAFGASRALGGVTEGAYPSRTSNPIPPFSLLWIGMLHDYWSRHPDPEPARRHLARAREVLAWFDGYLGPDGLMRKTPGWSFVDWAVKDGRLLSRDAFPSYDAQGRSCLLSLAYLGALRDMTDLEAALGEPSLAGRDRSRAEAIAAAVRDQCWAPDRGLFADTPDKASFSQHTNALAVLYDVAAPKDAAAILDRTVGQAGIDAPTGMISTSYYYAWYLVRAFDHAGQADRYLSLLDTWRGLLALDYTTWPEERGNTRSDTHAWSAHPTADLLELVAGIRPDAPGYGRLRVEPHLGALRRLDAAAATPQGPVEVKYRRKGQRLVVEVRKPAGLSGVFVWRGQSHALLGARTRLDLPAGD | 4.825% | 2.427% | 0.17 | 2.987% |
